Assay results as given in article PMC10397247.
Where two headings read alike, the source gives them in different places. Each block holds one binder with its values, some of them ahead of it.

Tests used:
4H754-bN = biological target: T1, 4H754-bN; test: two-hybrid library CCNG1;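 note: natural log of median RNA to DNA barcode read ratio; higher means stronger binding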
T1 chain: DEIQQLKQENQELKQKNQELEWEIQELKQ

4H968-bN = biological target: T2, 4H968-bN; test: two-hybrid library CCNG1;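 note: natural log of median RNA to DNA barcode read ratio; higher means stronger binding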
T2 chain: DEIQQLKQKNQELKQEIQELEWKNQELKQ

4H967-bN = biological target: T3, 4H967-bN; test: two-hybrid library CCNG1;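 note: natural log of median RNA to DNA barcode read ratio; higher means stronger binding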
T3 chain: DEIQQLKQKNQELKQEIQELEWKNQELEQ

4H953-bN = biological target: T4, 4H953-bN; test: two-hybrid library CCNG1;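 note: natural log of median RNA to DNA barcode read ratio; higher means stronger binding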
T4 chain: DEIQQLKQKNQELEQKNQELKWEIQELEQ

4H918-bN = biological target: T5, 4H918-bN; test: two-hybrid library CCNG1;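 note: natural log of median RNA to DNA barcode read ratio; higher means stronger binding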
T5 chain: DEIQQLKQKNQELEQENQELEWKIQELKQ

4H780-bN = biological target: T6, 4H780-bN; test: two-hybrid library CCNG1;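 note: natural log of median RNA to DNA barcode read ratio; higher means stronger binding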
T6 chain: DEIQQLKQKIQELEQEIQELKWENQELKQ

4H908-bN = biological target: T7, 4H908-bN; test: two-hybrid library CCNG1
T7 chain: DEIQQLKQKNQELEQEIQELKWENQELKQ

4H883-bN = biological target: T8, 4H883-bN; test: two-hybrid library CCNG1
T8 chain: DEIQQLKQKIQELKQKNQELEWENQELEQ

4H855-bN = biological target: T9, 4H855-bN; test: two-hybrid library CCNG1
T9 chain: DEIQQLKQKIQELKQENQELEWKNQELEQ

4H797-bN = biological target: T10, 4H797-bN; test: two-hybrid library CCNG1
T10 chain: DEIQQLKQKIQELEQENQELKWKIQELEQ

4H741-bH = biological target: T11, 4H741-bH; test: two-hybrid library CCNG1
T11 chain: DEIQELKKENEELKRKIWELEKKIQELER

4H406-AA = biological target: T12, 4H406-AA; test: two-hybrid library CCmax; settings: mean of both orientations
T12 chain: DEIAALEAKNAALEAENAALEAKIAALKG

4H347-AA = biological target: T13, 4H347-AA; test: two-hybrid library CCmax; settings: mean of both orientations
T13 chain: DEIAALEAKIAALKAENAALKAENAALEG

4H452-AA = biological target: T14, 4H452-AA; test: two-hybrid library CCmax; settings: mean of both orientations
T14 chain: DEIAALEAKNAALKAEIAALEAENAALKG

4H_BCR = biological target: T15, 4H_BCR; test: two-hybrid library CCmax; settings: mean of both orientations
T15 chain: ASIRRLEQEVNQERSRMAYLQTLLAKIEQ

4H_GCN4 = test: two-hybrid library CCmax; settings: mean of both orientations
4H3073-AA = biological target: T16, 4H3073-AA; test: two-hybrid library CCmax
T16 chain: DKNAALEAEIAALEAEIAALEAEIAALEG

4H_APH = biological target: T17, 4H_APH; test: two-hybrid library CCmax; settings: mean of both orientations
T17 chain: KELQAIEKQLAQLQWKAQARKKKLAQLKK

GCN2_T = test: two-hybrid library CCmax
4H56-AA = biological target: T18, 4H56-AA; test: two-hybrid library CCmax; settings: mean of both orientations
T18 chain: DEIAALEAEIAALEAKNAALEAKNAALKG

4H3438-AA = biological target: T19, 4H3438-AA; test: two-hybrid library CCmax; settings: mean of both orientations
T19 chain: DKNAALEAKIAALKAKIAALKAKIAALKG

APC9291-AA = biological target: T20, APC9291-AA; test: two-hybrid library CCmax; settings: mean of both orientations
T20 chain: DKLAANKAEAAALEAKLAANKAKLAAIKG

APC6088-AA = biological target: T21, APC6088-AA; test: two-hybrid library CCmax; settings: mean of both orientations
T21 chain: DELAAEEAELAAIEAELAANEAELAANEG

APC8401-AA = biological target: T22, APC8401-AA; test: two-hybrid library CCmax; settings: mean of both orientations
T22 chain: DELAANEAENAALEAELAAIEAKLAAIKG

APC8516-AA = biological target: T23, APC8516-AA; test: two-hybrid library CCmax; settings: mean of both orientations
T23 chain: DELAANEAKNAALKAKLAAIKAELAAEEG

APC9806-AA = biological target: T24, APC9806-AA; test: two-hybrid library CCmax; settings: mean of both orientations
T24 chain: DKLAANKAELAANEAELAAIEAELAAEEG

APC9182-AA = biological target: T25, APC9182-AA; test: two-hybrid library CCmax; settings: mean of both orientations
T25 chain: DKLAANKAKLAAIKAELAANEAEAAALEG

APC7524-AA = biological target: T26, APC7524-AA; test: two-hybrid library CCmax; settings: mean of both orientations
T26 chain: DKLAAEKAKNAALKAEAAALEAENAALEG

APC5531-AA = biological target: T27, APC5531-AA; test: two-hybrid library CCmax
T27 chain: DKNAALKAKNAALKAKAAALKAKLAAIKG

APC9141-AA = biological target: T28, APC9141-AA; test: two-hybrid library CCmax; settings: mean of both orientations
T28 chain: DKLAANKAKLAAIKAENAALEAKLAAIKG

APC542-AA = biological target: T29, APC542-AA; test: two-hybrid library CCmax
T29 chain: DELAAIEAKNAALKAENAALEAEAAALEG

4H741-bA = biological target: T30, 4H741-bA; test: two-hybrid library CCNG1
T30 chain: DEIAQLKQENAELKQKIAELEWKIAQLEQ

4H949-bA = biological target: T31, 4H949-bA; test: two-hybrid library CCNG1
T31 chain: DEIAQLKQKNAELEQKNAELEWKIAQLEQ

4H796-bA = biological target: T32, 4H796-bA; test: two-hybrid library CCNG1
T32 chain: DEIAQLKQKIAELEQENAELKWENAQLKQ

4H730-bA = biological target: T33, 4H730-bA; test: two-hybrid library CCNG1
T33 chain: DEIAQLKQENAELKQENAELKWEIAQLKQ

4H932-bA = biological target: T34, 4H932-bA; test: two-hybrid library CCNG1
T34 chain: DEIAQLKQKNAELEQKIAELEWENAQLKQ

4H775-AA = biological target: T35, 4H775-AA; test: two-hybrid library CCmax; settings: mean of both orientations
T35 chain: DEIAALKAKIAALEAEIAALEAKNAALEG

O11-AA = biological target: T36, O11-AA; test: two-hybrid library CCmax
T36 chain: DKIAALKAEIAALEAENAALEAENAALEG

O14-AA = biological target: T37, O14-AA; test: two-hybrid library CCmax; settings: mean of both orientations
T37 chain: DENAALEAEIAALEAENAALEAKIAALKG

O13-AA = biological target: T38, O13-AA; test: two-hybrid library CCmax; settings: mean of both orientations
T38 chain: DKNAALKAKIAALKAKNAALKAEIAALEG

4H510-AA = biological target: T39, 4H510-AA; test: two-hybrid library CCmax
T39 chain: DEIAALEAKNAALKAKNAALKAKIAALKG

4H87-AA = biological target: T40, 4H87-AA; test: two-hybrid library CCmax; settings: mean of both orientations
T40 chain: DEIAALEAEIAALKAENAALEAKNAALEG

4H816-AA = biological target: T41, 4H816-AA; test: two-hybrid library CCmax; settings: mean of both orientations
T41 chain: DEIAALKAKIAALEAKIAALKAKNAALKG

4H953-bA = biological target: T42, 4H953-bA; test: two-hybrid library CCNG1
T42 chain: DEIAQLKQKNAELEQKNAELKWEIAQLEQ

4H780-bA = biological target: T43, 4H780-bA; test: two-hybrid library CCNG1
T43 chain: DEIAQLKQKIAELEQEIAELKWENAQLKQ

4H968-bA = biological target: T44, 4H968-bA; test: two-hybrid library CCNG1
T44 chain: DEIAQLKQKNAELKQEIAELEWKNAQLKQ

4H918-bA = biological target: T45, 4H918-bA; test: two-hybrid library CCNG1
T45 chain: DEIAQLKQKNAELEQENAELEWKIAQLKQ

4H855-bA = biological target: T46, 4H855-bA; test: two-hybrid library CCNG1
T46 chain: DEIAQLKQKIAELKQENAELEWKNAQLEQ

4H797-bA = biological target: T47, 4H797-bA; test: two-hybrid library CCNG1
T47 chain: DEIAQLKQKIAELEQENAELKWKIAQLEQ

Chain of 4H_GCN4 (chain, as listed by the source): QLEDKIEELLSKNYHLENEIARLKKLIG

- interaction score (4H406-AA): -1.6
- interaction score (4H347-AA): -1.33
- interaction score (4H452-AA): -1.22
- interaction score (4H_BCR): -1.37
- interaction score (4H_GCN4): -0.626
- interaction score (4H3073-AA): -0.701
- interaction score (4H_APH): 0.197
- interaction score (GCN2_T): -1.05
- interaction score (4H56-AA): -1.28
- interaction score (4H3438-AA): 1.51
Binder: DKNAALEAEIAALEAEIAALEAEIAALEG [4H3073-AA]

- interaction score (APC9291-AA): -1.72
- interaction score (APC6088-AA): -1.44
- interaction score (APC8401-AA): -1.77
- interaction score (APC8516-AA): -1.6
- interaction score (APC9806-AA): -1.95
- interaction score (APC9182-AA): -1.96
- interaction score (APC7524-AA): -1.84
- interaction score (APC5531-AA): -1.63
- interaction score (APC9141-AA): -1.97
Binder: DKNAALKAKNAALKAKAAALKAKLAAIKG [APC5531-AA]

- interaction score (APC9291-AA): -1.54
- interaction score (APC6088-AA): -2.13
- interaction score (APC8401-AA): -1.89
- interaction score (APC542-AA): -1.57
- interaction score (APC8516-AA): -1.5
- interaction score (APC9806-AA): -1.91
- interaction score (APC9182-AA): -1.84
- interaction score (APC7524-AA): -2
- interaction score (APC5531-AA; mean of both orientations): -1.88
- interaction score (APC9141-AA): -1.64
Binder: DELAAIEAKNAALKAENAALEAEAAALEG [APC542-AA]

- interaction score (4H968-bN): -2.05
- interaction score (4H953-bN): -0.748
- interaction score (4H918-bN): -0.346
- interaction score (4H780-bN): 1.99
- interaction score (4H855-bN): -0.732
- interaction score (4H797-bN): -0.0265
Binder: DEIQQLKQKIQELEQEIQELKWENQELKQ [4H780-bN]

Further lines, the binder ahead of its results:

Binder: DEIQQLKQENQELKQKNQELEWEIQELKQ [4H754-bN]
- interaction score (4H754-bN): 0.447
- interaction score (4H968-bN): -0.3
- interaction score (4H967-bN): -0.968
- interaction score (4H953-bN): -1.42
- interaction score (4H918-bN): -1.04
- interaction score (4H780-bN): 0.164
- interaction score (4H908-bN): -1.55
- interaction score (4H883-bN): -1.38
- interaction score (4H855-bN): -0.508
- interaction score (4H797-bN): -1.55

Binder: DEIQELKKENEELKRKIWELEKKIQELER [4H741-bH]
- interaction score (4H741-bH): 1.26

Binder: DEIAQLKQENAELKQKIAELEWKIAQLEQ [4H741-bA]
- interaction score (4H741-bA): 0.341

Binder: DEIAQLKQENAELKQENAELKWEIAQLKQ [4H730-bA]
- interaction score (4H949-bA): -0.437
- interaction score (4H796-bA): -0.666
- interaction score (4H730-bA): 1.25
- interaction score (4H932-bA): -0.52

Binder: DEIAALEAKNAALKAKNAALKAKIAALKG [4H510-AA]
- interaction score (4H775-AA): -1.67
- interaction score (O11-AA): 1.49
- interaction score (O14-AA): 1.32
- interaction score (4H_BCR): -2.2
- interaction score (4H_GCN4): -2.32
- interaction score (O13-AA): -1.66
- interaction score (4H_APH): -2.26
- interaction score (4H510-AA): -1.44
- interaction score (4H87-AA): -1.29
- interaction score (GCN2_T): -1.77
- interaction score (4H816-AA): -2

Binder: DEIAQLKQKIAELEQEIAELKWENAQLKQ [4H780-bA]
- interaction score (4H953-bA): -0.243
- interaction score (4H780-bA): 1.22
- interaction score (4H968-bA): -1.3
- interaction score (4H918-bA): -0.303
- interaction score (4H855-bA): -0.574
- interaction score (4H797-bA): -0.749
